Molecular target: pre-formed Aβ oligomers (Aβ42) (UniProt P05067)
Assay: fluorescence correlation spectroscopy

“pre-formed Aβ oligomers (Aβ42) (from UniProt P05067 672-713) (complex)” was tested, and the fraction of fluorescently labeled Aβ in oligomers was 59%.

— doi:10.1101/2025.11.19.685371
